Assay results as given in article doi:10.1101/2025.10.10.681541, “Visualizing the mechanism of quinol oxidation and inhibition of a bd-type oxidase using cryo-EM” (bioRxiv, 2025).

What was measured:
[1] = biological target: T1, E. coli cytochrome bd-I subunit CydA (E. coli, UniProt P0ABJ9 1-522); assay: cryo-EM structure; purified Ecbd in LMNG micelles (unbound, Aurachin D bound) or in MSP1D1 PC nanodiscs doped with 5% menaquinone-9; monomeric and dimeric particles on the same grids; conditions: both partners purified
T1 construct: CydA, subunit of E. coli cytochrome bd-I (Ecbd); harbours hemes b558, b595 and d and the Q-loop; Co-expressed and co-purified with CydB, CydX and CydH; never isolated on its own
T1 sequence: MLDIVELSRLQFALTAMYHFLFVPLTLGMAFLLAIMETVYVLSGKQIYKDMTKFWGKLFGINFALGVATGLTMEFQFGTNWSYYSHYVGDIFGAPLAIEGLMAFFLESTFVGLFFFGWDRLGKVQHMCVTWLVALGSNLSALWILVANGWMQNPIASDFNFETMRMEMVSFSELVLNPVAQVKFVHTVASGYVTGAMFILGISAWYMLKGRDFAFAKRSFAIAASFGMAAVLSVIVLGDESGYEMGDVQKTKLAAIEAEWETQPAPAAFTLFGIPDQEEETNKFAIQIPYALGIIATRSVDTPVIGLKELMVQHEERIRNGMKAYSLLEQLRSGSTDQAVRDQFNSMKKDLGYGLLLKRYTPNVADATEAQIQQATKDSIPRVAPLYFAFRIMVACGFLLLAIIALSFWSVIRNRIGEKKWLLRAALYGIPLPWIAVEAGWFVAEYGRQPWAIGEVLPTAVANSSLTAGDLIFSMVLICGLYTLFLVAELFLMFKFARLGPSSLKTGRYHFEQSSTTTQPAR

[2] = biological target: the molecule itself; assay: as above

binding result [1]: binds
B1: E. coli cytochrome bd-I subunit CydX (natural protein)
chain: MWYFAWILGTLLACSFGVITALALEHVESGKAGQEDI
notes: CydX, single-helix subunit of E. coli cytochrome bd-I (Ecbd)
binding result [2]: binds
